Assay results from patent US20200332017A1 (SALUBRIS CHENGDU BIOTECH, published 2020).
Numbering of substitutions follows the chain as printed. Where two headings read alike, the source gives them in different places.

Key:
[1] = target: T1, full length human CD40 (uniprot # P25942-1) on the membrane of 293T-CD40 cells (human, UniProt P25942 21-277); assay: flow cytometry on 293T-CD40 cells, PE-labeled secondary antibody, MFI
T1 construct: also called cell surface CD40
Experimental: (§1) 2×10⁵ cells per well in 96 well-plates were incubated with the mouse anti-CD40 antibodies or the controls of various concentrations in FACS buffer for 40 minutes on ice. […] Following an incubation of 40 minutes at 4° C. in dark, cells were washed three times and resuspended in FACS buffer. Fluorescence was measured using a Becton Dickinson FACS Canto II-HTS equipment and plotted against antibody concentration.

[2] = target: T1, full length human CD40 (uniprot # …); assay: flow cytometry on 293T-CD40 cells
Experimental: as §1

[3] = target: T1, full length human CD40 (uniprot # …); assay: cell-based or functional assay
[4] = target: T2, human CD40-Fc protein (amino acid residue 21-193 of SEQ ID NO: 67 linked to N-terminus of amino acid residue … (human, biotin-labeled in the capture ELISA and in the benchmark blocking ELISA; unlabeled when coated in the ligand blocking ELISA); assay: competitive ELISA; coated human CD40-Fc, competitor biotin human CD40L-his
T2 construct: also called biotin-labeled human CD40-Fc; human CD40-Fc-biotin
Experimental: Briefly, human CD40-Fc proteins (amino acid residue 21-193 of SEQ ID NO: 67 linked to N-terminus of amino acid residue 99-330 of SEQ ID NO.: 24) were coated on 96-well micro plates at 2 μg/mL in coating buffer (PBS) and incubated overnight at 4° C. The next day, plates were washed with wash buffer (PBS+0.05% Tween-20, PBST), and blocked with 5% w/v non-fatty milk in PBST for 2 hours at 37° C. Plates were then washed again using wash buffer.
Serially diluted the mouse anti-CD40 antibodies of the present invention or the controls (starting at 200 nM with a four-fold serial dilution) in 2.5% w/v non-fatty milk in PBST were prepared to the plates and incubated with the human CD40-Fc proteins at room temperature for 40 minutes. […] Plates were washed again. 100 μl/well of streptavidin conjugated HRP was added and incubated for 40 minutes at 37° C. Plates were washed again using wash buffer. Finally, TMB was added and the reaction was stopped using 1M H₂SO₄, and the absorbance was read at 450 nm. Data were analyzed using Graphpad Prism software and IC₅₀ values were reported.

[5] = target: T2, human CD40-Fc protein (amino acid …); assay: competitive ELISA; biotin human CD40-Fc in solution, competitor coated BM2
Experimental: The ability of the mouse anti-CD40 antibodies of the present invention to block the binding of the Benchmark to human CD40 was measured using a competitive ELISA assay. […] The next day, plates were washed with wash buffer, and blocked with 5% w/v non-fatty milk in PBST for 2 hours at 37° C. Plates were then washed again using wash buffer. […] After incubation at 37° C. for 40 minutes, plates were washed 4 times using wash buffer. Then streptavidin conjugated HRP was added and incubated for 40 minutes at 37° C. to detect biotin-labeled human CD40-Fc bound to plates. Plates were washed again using wash buffer. Finally, TMB was added and the reaction was stopped using 1M H₂SO₄, and the absorbance was read at 450 nm. Data were analyzed using Graphpad Prism software and IC₅₀ values were reported.

[6] = target: T2, human CD40-Fc protein (amino acid …); assay: capture ELISA; antibody captured, biotin-labeled human CD40-Fc in solution
Experimental: (§2) Plates were washed 4 times with wash buffer (PBS+0.05% Tween-20, PBST) and then blocked with 200 μl/well blocking buffer (5% w/v non-fatty milk in PBST) for 2 hours at 37° C. […] After a final wash, plates were incubated with 100 μl/well ELISA substrate TMB (Innoreagents, Cat # TMB-S-002). The reaction was stopped in 15 minutes at 25° C. with 50 μl/well 1M H₂SO₄, and the absorbance was read at 450 nm and plotted against antibody concentration. Data were analyzed using Graphpad Prism software and EC₅₀ values were reported.

[7] = target: T3, Human CD40-his protein (Acro biosystems, Cat # CD0-H5228) (human, UniProt P25942 21-193); assay: SPR, Biacore; antibody captured, human CD40-his flowed
T3 construct: Bought reagent; not shown: his tag
Source text: Briefly, goat anti-mouse IgG (GE healthcare, Cat # BR100838, Mouse Antibody Capture Kit) was covalently linked to a CM5 or a Protein G chip (carboxy methyl dextran coated chip) via primary amines, using a standard amine coupling kit provided by Biacore (GE healthcare, Pittsburgh, Pa., USA). Un-reacted moieties on the biosensor surface were blocked with ethanolamine. […] Then, human CD40-his (Acro biosystems, Cat # CD0-H5228) or cynomolgus monkey CD40-his protein (Acro biosystems, Cat # CD0-052H6) in HBS EP buffer (provided by Biacore) was flowed onto the chip at a flow rate of 30 μL/min. The antigen-antibody association kinetics was followed for 2 minutes and the dissociation kinetics was followed for 10 minutes. The association and dissociation curves were fit to a 1:1 Langmuir binding model using BIA evaluation software.

[8] = target: T2, human CD40-Fc protein (amino acid …); assay: capture ELISA, biotin human CD40-Fc; mAb at 2000 ng/mL
Experimental: as §2

[9] = target: T2, human CD40-Fc protein (amino acid …); assay: capture ELISA, biotin human CD40-Fc; mAb at 3.2 ng/mL
Experimental: as §2

[10] = target: T2, human CD40-Fc protein (amino acid …); assay: capture ELISA, biotin human CD40-Fc; mAb at 0.64 ng/mL
Experimental: as §2

[11] = target: T2, human CD40-Fc protein (amino acid …); assay: capture ELISA, biotin human CD40-Fc; mAb at 80 ng/mL
Experimental: as §2

[12] = target: T2, human CD40-Fc protein (amino acid …); assay: capture ELISA, biotin human CD40-Fc; mAb at 400 ng/mL
Experimental: as §2

[13] = target: T2, human CD40-Fc protein (amino acid …); assay: capture ELISA; antibody captured, biotin-labeled human CD40-Fc in solution; remark: listed apart in the source
Experimental: as §2

[14] = target: T2, human CD40-Fc protein (amino acid …); assay: capture ELISA, biotin human CD40-Fc; mAb at 10000 ng/mL
Experimental: as §2

[15] = target: T2, human CD40-Fc protein (amino acid …); assay: capture ELISA, biotin human CD40-Fc; mAb at 0 ng/mL (blank)
Experimental: as §2

[16] = target: T2, human CD40-Fc protein (amino acid …); assay: capture ELISA, biotin human CD40-Fc; mAb at 16 ng/mL
Experimental: as §2

B1: mouse anti-CD40 monoclonal antibody 1B2 (antibody, V domains shown)
VH: EVQLQQSGPELVKPGASVKMSCKASGYTFTDYVMHWVKQKPGQGLECIGYINPYNDGTKYNEKFKGKATLTSDKSSSAAYLELSSLTSEDSAVYYCARGFLRESWFGYWGQGTLVTVSA
VL: DVLMTQTPLSLPVSLGDQASISCRSSQNIVHSNGNTYLDWYLQKPGQSPKLLIYKVSNRFSGVPDRFSGSGSGTDFTLKINRVEAEDLGVYYCFQGSHVPPTFGAGTKLELK
notes: Purified from hybridoma supernatant; also called Mouse 1B2
- EC50 (read off the curve) [1]: ~3 nM
- EC50 [2]: 2.54 nM
- Cell-based Reporter assay (EC50, nM) [3]: 6.36 nM
- IC50 [4]: 315 nM
- IC50 [5]: 4.76 nM
- EC50 [6]: 47.1 nM

B2: humanized antibody huC1C1-V6 (antibody, human IgG1, kappa, V domains shown)
VH: EVQLVESGGGVVQPGRSLRLSCAASGFTFSNYGMSWVRQAPGKGLEWVASISSGGDDTYYPDNVKGRCTISRDNSKNTLYLQMNSLRAEDTAVYYCTRAGGKAMDYWGQGTLVTVSS
VL: EIVLTQSPATLSLSPGERATLSCRASQSIRDNLHWYQQKPGQAPRLLIYYASQSISGIPARFSGSGSGTDFTLTISSLEPEDFAVYYCQQFNSWPLTFGQGTKVEIKR
notes: Human IgG1/kappa
- Kd [7]: 11.6 nM
- koff [7]: 0.00881 s⁻¹
- kon [7]: 763000 M⁻¹ s⁻¹

B3: humanized antibody huC1C1-V1 (antibody, human IgG1, kappa, V domains shown)
VH: B2 VH
VL: B2 VL with A43S, Y49N, Y87F
notes: Human IgG1/kappa; also called humanized C1C1-V1
- absorbance at 450 nm [8]: 1.78 OD450
- absorbance at 450 nm [9]: 0.083 OD450
- absorbance at 450 nm [10]: 0.035 OD450
- absorbance at 450 nm [11]: 1.12 OD450
- absorbance at 450 nm [12]: 1.73 OD450
- EC50 [13]: 0.382 ng/mL
- absorbance at 450 nm [14]: 1.9 OD450
- absorbance at 450 nm [15]: 0.028 OD450
- absorbance at 450 nm [16]: 0.353 OD450

B4: humanized antibody huC1C1-V2 (antibody, human IgG1, kappa, V domains shown)
VH: B2 VH with C68F
VL: B2 VL with A43S, Y49N, Y87F
notes: Human IgG1/kappa
- absorbance at 450 nm [8]: 1.72 OD450
- absorbance at 450 nm [9]: 0.073 OD450
- absorbance at 450 nm [10]: 0.029 OD450
- absorbance at 450 nm [11]: 1.02 OD450
- absorbance at 450 nm [12]: 1.62 OD450
- EC50 [13]: 0.428 ng/mL
- absorbance at 450 nm [14]: 1.82 OD450
- absorbance at 450 nm [15]: 0.027 OD450
- absorbance at 450 nm [16]: 0.3 OD450

B5: humanized antibody huC1C1-V3 (antibody, human IgG1, kappa, V domains shown)
VH: B2 VH
VL: B2 VL with Y49N, Y87F
notes: Human IgG1/kappa
- absorbance at 450 nm [8]: 1.71 OD450
- absorbance at 450 nm [9]: 0.083 OD450
- absorbance at 450 nm [10]: 0.032 OD450
- absorbance at 450 nm [11]: 1.15 OD450
- absorbance at 450 nm [12]: 1.72 OD450
- EC50 [13]: 0.336 ng/mL
- absorbance at 450 nm [14]: 1.8 OD450
- absorbance at 450 nm [15]: 0.024 OD450
- absorbance at 450 nm [16]: 0.357 OD450

B6: humanized antibody huC1C1-V4 (antibody, human IgG1, kappa, V domains shown)
VH: B2 VH
VL: B2 VL with A43S, Y87F
notes: Human IgG1/kappa
- absorbance at 450 nm [8]: 1.7 OD450
- absorbance at 450 nm [9]: 0.103 OD450
- absorbance at 450 nm [10]: 0.039 OD450
- absorbance at 450 nm [11]: 1.25 OD450
- absorbance at 450 nm [12]: 1.63 OD450
- EC50 [13]: 0.267 ng/mL
- absorbance at 450 nm [14]: 1.84 OD450
- absorbance at 450 nm [15]: 0.025 OD450
- absorbance at 450 nm [16]: 0.459 OD450

B7: humanized antibody huC1C1-V5 (antibody, human IgG1, kappa, V domains shown)
VH: B2 VH
VL: B2 VL with A43S, Y49N
notes: Human IgG1/kappa; also called humanized C1C1-V5
- absorbance at 450 nm [8]: 1.68 OD450
- absorbance at 450 nm [9]: 0.083 OD450
- absorbance at 450 nm [10]: 0.033 OD450
- absorbance at 450 nm [11]: 1.1 OD450
- absorbance at 450 nm [12]: 1.66 OD450
- EC50 [13]: 0.355 ng/mL
- absorbance at 450 nm [14]: 1.77 OD450
- absorbance at 450 nm [15]: 0.027 OD450
- absorbance at 450 nm [16]: 0.34 OD450
